Numbering of substitutions follows the chain as printed. In names and notes the source's numbering stands.
T1: FcγRIIa H (FcγRIIa type H, His at position 131), extracellular domain with C-terminal His tag (human, UniProt P12318 34-217)
T1 construct: extracellular domain; also called FcgRIIa H; 2aH
T1 sequence (looked up): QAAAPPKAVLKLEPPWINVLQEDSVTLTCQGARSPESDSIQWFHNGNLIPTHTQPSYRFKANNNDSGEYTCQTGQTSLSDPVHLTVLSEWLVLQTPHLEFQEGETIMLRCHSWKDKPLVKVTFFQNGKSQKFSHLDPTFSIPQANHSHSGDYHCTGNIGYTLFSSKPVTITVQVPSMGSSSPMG

T2: FcγRIIb (human, UniProt P31994 43-217)
T2 construct: extracellular domain; also called FcgRIIb; 2b; not shown: His tag at the C terminus
T2 sequence (looked up): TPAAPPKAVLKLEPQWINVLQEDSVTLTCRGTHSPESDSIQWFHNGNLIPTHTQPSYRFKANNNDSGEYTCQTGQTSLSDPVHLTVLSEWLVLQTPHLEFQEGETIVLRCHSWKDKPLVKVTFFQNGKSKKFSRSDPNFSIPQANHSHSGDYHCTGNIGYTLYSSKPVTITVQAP

T3: FcγRIIa R (human, UniProt P12318 34-217)
T3 construct: extracellular domain; also called FcgRIIa R type; 2aR; not shown: His tag at the C terminus
T3 sequence (looked up): T1 sequence (looked up) with H134R

T4: FcγRIIb (human, UniProt P31994 43-217)
T4 construct: extracellular domain; also called FcgRIIb; 2b
T4 sequence (looked up): T2 sequence (looked up)

T5: FcγRIIa H (human, UniProt P12318 34-217)
T5 construct: extracellular domain; also called FcgRIIa H; FcγRIIa type H
T5 sequence (looked up): T1 sequence (looked up)

B1: GpH7-B3 variant I332_02A/GpL16-k0 (antibody, human IgG1, kappa)
heavy: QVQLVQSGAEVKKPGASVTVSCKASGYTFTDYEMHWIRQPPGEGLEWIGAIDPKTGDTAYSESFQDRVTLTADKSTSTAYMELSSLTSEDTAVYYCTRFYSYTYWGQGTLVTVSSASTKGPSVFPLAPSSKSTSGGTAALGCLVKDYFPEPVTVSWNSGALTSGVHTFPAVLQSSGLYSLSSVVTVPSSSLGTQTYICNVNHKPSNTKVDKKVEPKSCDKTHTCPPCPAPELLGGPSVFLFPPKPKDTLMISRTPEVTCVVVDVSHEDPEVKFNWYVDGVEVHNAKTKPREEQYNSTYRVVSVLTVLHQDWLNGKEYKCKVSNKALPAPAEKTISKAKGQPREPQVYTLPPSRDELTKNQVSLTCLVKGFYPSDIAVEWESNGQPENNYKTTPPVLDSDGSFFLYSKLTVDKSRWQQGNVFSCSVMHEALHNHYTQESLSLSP
light: DIVMTQSPLSLPVTPGEPASISCQASESLVHSNRNTYLHWYLQKPGQSPQLLIYKVSNRFSGVPDRFSGSGSGTDFTLKISRVEAEDVGVYYCSQNTHVPPTFGQGTKVEIERTVAAPSVFIFPPSDEQLKSGTASVVCLLNNFYPREAKVQWKVDNALQSGNSQESVTEQDSKDSTYSLSSTLTLSKADYEKHKVYACEVTHQGLSSPVTKSFNRGEC
notes: both H chains mutated; also called Ho Ab
B2: GpH7-B3 variant H268_10E/GpL16-k0 (antibody, human IgG1, kappa)
heavy: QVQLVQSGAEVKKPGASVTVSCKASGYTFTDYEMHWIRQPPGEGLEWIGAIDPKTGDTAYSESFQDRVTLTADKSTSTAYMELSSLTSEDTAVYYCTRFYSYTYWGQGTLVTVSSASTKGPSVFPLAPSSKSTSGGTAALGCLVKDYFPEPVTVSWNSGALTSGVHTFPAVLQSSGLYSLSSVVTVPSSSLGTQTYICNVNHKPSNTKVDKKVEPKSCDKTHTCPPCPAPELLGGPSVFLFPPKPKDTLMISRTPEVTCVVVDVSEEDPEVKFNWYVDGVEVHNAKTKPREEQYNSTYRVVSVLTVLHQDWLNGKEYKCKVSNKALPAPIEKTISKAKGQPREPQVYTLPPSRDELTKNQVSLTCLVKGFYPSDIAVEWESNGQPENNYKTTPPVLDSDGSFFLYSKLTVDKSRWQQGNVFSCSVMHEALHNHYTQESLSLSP
light: B1 light
notes: as for B1
B3: GpH7-B3 variant G236_10E/GpL16-k0 (antibody, human IgG1, kappa)
heavy: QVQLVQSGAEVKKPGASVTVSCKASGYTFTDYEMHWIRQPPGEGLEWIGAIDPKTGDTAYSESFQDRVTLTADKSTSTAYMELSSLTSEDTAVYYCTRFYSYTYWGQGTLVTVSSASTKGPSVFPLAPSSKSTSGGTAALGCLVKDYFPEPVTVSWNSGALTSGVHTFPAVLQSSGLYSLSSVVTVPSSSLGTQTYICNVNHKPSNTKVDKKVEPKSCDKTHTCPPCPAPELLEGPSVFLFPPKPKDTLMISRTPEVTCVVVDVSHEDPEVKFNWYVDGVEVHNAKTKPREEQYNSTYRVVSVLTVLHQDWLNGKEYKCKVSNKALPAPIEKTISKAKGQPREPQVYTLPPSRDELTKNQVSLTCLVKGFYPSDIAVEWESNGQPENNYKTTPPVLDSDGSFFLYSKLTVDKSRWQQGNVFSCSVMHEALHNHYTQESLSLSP
light: B1 light
notes: as for B1
B4: GpH7-B3 variant I332_03V/GpL16-k0 (antibody, human IgG1, kappa)
heavy: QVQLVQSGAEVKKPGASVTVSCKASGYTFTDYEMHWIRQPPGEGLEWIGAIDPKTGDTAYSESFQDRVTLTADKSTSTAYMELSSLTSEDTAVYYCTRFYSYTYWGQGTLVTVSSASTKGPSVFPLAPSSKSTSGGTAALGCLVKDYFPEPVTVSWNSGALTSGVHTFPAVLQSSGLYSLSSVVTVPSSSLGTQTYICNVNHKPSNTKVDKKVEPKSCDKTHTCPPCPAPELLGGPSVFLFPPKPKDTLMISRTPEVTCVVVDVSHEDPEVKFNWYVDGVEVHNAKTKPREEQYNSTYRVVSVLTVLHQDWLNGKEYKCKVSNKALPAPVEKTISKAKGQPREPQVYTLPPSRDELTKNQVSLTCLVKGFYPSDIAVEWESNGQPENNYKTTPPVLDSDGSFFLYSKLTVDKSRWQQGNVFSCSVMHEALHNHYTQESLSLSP
light: B1 light
notes: as for B1
B5: GpH7-B3 variant H268_09D/GpL16-k0 (antibody, human IgG1, kappa)
heavy: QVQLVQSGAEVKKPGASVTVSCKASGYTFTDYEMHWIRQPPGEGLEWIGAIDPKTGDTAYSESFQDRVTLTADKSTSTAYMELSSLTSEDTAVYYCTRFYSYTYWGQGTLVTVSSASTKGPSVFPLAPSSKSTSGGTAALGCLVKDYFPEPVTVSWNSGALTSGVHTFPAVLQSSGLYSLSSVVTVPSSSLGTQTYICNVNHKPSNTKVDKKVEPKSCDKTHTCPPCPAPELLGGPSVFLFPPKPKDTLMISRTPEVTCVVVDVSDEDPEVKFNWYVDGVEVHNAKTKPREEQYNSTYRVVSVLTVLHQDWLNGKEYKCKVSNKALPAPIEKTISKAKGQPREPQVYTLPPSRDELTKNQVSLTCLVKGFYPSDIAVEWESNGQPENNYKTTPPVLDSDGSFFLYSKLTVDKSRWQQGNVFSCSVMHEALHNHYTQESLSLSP
light: B1 light
notes: as for B1
B6: GpH7-B3 variant H268_18N/GpL16-k0 (antibody, human IgG1, kappa)
heavy: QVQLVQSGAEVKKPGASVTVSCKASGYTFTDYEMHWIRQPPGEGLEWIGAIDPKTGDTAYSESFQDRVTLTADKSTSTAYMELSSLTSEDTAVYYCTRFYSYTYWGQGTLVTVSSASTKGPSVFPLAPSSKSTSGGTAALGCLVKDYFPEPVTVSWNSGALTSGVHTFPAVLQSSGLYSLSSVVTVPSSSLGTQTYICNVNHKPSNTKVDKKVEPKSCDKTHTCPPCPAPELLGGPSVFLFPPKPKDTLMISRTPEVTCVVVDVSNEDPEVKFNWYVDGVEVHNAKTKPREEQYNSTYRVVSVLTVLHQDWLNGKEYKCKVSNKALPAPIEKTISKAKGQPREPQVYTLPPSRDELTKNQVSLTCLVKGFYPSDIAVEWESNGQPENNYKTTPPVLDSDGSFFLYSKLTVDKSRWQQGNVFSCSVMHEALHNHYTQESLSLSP
light: B1 light
notes: as for B1
B7: GpH7-B3 variant A330_12R/GpL16-k0 (antibody, human IgG1, kappa)
heavy: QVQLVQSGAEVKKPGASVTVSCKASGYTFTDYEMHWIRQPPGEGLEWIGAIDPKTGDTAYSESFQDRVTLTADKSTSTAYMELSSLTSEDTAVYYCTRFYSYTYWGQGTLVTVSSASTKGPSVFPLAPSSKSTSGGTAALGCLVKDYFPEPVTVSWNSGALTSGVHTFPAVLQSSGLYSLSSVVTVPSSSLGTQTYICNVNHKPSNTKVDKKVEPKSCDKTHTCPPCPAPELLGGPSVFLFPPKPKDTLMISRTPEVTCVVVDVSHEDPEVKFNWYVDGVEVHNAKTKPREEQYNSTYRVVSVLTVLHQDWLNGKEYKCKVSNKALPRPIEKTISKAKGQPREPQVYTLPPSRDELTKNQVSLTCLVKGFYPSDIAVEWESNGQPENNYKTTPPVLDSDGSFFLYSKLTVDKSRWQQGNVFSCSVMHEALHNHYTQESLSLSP
light: B1 light
notes: as for B1
B8: GpH7-B3 variant G236_07I/GpL16-k0 (antibody, human IgG1, kappa)
heavy: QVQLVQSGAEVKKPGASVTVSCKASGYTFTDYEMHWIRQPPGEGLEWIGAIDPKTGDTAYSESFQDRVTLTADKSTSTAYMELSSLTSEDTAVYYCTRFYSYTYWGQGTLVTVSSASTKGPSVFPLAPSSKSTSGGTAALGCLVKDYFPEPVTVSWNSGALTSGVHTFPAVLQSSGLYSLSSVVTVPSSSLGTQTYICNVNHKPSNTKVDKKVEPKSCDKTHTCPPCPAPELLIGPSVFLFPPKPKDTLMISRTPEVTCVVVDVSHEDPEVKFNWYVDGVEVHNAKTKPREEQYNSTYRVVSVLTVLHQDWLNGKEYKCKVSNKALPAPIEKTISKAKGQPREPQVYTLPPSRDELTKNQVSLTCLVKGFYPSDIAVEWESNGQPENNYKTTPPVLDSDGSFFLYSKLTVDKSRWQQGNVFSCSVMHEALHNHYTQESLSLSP
light: B1 light
notes: as for B1
B9: GpH7-B3 variant G236_03V/GpL16-k0 (antibody, human IgG1, kappa)
heavy: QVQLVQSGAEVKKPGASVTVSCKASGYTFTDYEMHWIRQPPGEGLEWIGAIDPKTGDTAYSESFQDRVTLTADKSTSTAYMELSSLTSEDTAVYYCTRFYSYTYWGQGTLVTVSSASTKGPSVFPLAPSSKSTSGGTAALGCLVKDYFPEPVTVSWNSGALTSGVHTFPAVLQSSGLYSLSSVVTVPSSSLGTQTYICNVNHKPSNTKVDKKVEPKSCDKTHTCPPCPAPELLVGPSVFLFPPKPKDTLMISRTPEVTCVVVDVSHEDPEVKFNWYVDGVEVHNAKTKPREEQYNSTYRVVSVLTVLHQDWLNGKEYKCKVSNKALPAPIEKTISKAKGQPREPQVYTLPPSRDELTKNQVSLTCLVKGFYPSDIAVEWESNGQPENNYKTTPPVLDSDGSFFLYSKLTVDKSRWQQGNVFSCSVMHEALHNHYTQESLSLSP
light: B1 light
notes: as for B1
B10: GpH7-B3 variant H268_13S/GpL16-k0 (antibody, human IgG1, kappa)
heavy: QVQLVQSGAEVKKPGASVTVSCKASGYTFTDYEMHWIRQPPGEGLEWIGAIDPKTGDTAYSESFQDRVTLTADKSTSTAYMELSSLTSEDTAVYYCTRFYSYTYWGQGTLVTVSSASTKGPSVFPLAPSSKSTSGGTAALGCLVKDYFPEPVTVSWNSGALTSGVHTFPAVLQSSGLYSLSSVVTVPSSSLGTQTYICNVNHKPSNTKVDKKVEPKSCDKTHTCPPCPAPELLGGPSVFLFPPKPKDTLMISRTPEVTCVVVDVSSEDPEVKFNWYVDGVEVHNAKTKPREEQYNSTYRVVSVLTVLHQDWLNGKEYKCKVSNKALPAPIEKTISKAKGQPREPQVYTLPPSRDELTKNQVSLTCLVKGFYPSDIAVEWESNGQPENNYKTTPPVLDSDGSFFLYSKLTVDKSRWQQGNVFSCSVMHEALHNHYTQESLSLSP
light: B1 light
notes: as for B1
B11: GpH7-A5/GpH7-B3 variant A327_01G/GpL16-k0 (antibody, human IgG1, kappa)
heavy 1: not shown
heavy 2: not shown
light: B1 light
notes: Heterodimerized anti-glypican-3 IgG1; mutation in the GpH7-B3 chain only; also called He Ab
B12: GpH7-A5/GpH7-B3 variant L328_19Q/GpL16-k0 (antibody, human IgG1, kappa)
heavy 1: not shown
heavy 2: not shown
light: B1 light
notes: as for B11
B13: GpH7-A5/GpH7-B3 variant Y300_19Q/GpL16-k0 (antibody, human IgG1, kappa)
heavy 1: not shown
heavy 2: not shown
light: B1 light
notes: as for B11
B14: GpH7-A5/GpH7-B3 variant S239_03V/GpL16-k0 (antibody, human IgG1, kappa)
heavy 1: not shown
heavy 2: not shown
light: B1 light
notes: as for B11
B15: GpH7-A5/GpH7-B3 variant I332_02A/GpL16-k0 (antibody, human IgG1, kappa)
heavy 1: not shown
heavy 2: not shown
light: B1 light
notes: as for B11
B16: GpH7-A5/GpH7-B3 variant P238_15Y/GpL16-k0 (antibody, human IgG1, kappa)
heavy 1: not shown
heavy 2: not shown
light: B1 light
notes: Heterodimerized antibody, alteration in one H chain only; also called He Ab P238Y
B17: GpH7-A5/GpH7-B3 variant Y296_20W/GpL16-k0 (antibody, human IgG1, kappa)
heavy 1: not shown
heavy 2: not shown
light: B1 light
notes: Heterodimerized antibody, alteration in one H chain only; also called He Ab Y296W
B18: GpH7-A5/GpH7-B3 variant P271_09D/GpL16-k0 (antibody, human IgG1, kappa)
heavy 1: not shown
heavy 2: not shown
light: B1 light
notes: Heterodimerized antibody, alteration in one H chain only; also called He Ab P271D
B19: GpH7-A5/GpH7-B3 variant S239_18N/GpL16-k0 (antibody, human IgG1, kappa)
heavy 1: not shown
heavy 2: not shown
light: B1 light
notes: Heterodimerized antibody, alteration in one H chain only; also called He Ab S239N
B20: GpH7-A5/GpH7-B3 variant S267_08L/GpL16-k0 (antibody, human IgG1, kappa)
heavy 1: not shown
heavy 2: not shown
light: B1 light
notes: Heterodimerized antibody, alteration in one H chain only; also called He Ab S267L
B21: GpH7-A5/GpH7-B3 variant S239_05P/GpL16-k0 (antibody, human IgG1, kappa)
heavy 1: not shown
heavy 2: not shown
light: B1 light
notes: Heterodimerized antibody, alteration in one H chain only; also called He Ab S239P

The binders below were run against T1, FcγRIIa H (FcγRIIa type H, His at …) (assay: SPR Biacore, relative binding, GpH7-B3/GpL16-k0 (HoCon Ab)=100).
Procedure: Analysis of interaction between objective antibody and the FcγR was carried out using Biacore T100 (GE Healthcare). HBS-EP+ (GE Healthcare) was used as the running buffer, and the measurement temperature was set to 25° C. Chips produced by immobilizing the antigen peptide by the amine coupling method to a Series S Sencor Chip CM5 (GE Healthcare), or alternatively, chips produced by allowing preliminarily biotinylated antigen peptides to interact with and immobilize onto a Series S Sensor Chip SA (certified) (GE Healthcare) were used. Antibodies of interest were captured onto an antigen peptide-immobilized chip, and allowed to interact to each FcγR diluted with running buffer. To regenerate and repeatedly use the chip, the antibodies captured on the chip were washed off by reacting 10 mM glycine-HCl, pH 1.5.

Ho/Con_2aH | Binder
119 % of control | B1
126 % of control | B2
122 % of control | B3
106 % of control | B4
136 % of control | B5
110 % of control | B6
110 % of control | B7
101 % of control | B8
111 % of control | B9
114 % of control | B10

These binders were tested against T2, FcγRIIb (assay: SPR, relative to GpH7-A5/GpH7-B3/GpL16-k0).

He/Con_2b [control = 100] | Binder
116 | B11
105 | B12
108 | B13
108 | B14
103 | B15

What follows are binders tested against T3, FcγRIIa R (assay: SPR, relative to GpH7-A5/GpH7-B3/GpL16-k0).

He/Con_2aR [control = 100] | Binder
98.2 | B11
89.3 | B12
99.7 | B13
99.9 | B14
97.6 | B15

Each binder was assayed against T4, FcγRIIb (assay: SPR (Biacore), antibody captured, FcγR analyte; binding relative to GpH7-A5/GpH7-B3/GpL16-k0 = 100).

He/Con_2b | Binder
218 % of control | B16
103 % of control | B17
120 % of control | B18
119 % of control | B19
109 % of control | B20
102 % of control | B21

Each binder was assayed against T5, FcγRIIa H in the same assay as above.

He/Con_2aH | Binder
59.8 % of control | B16
97.6 % of control | B17
70.1 % of control | B18
94.2 % of control | B19
29 % of control | B20
33.3 % of control | B21
